Laboratory results from patent publication US20240084023A1 (NGM BIOPHARMACEUTICALS, published 2024).
Changes are numbered by the printed parent chain.

Key:
[1] = target: T1, GCGR extracellular domain alanine mutant L50A (human, UniProt P47871 26-136, limits assumed); assay: flow cytometry on transfected 293XP cells
T1 construct: expressed in 293XP cells
T1 chain: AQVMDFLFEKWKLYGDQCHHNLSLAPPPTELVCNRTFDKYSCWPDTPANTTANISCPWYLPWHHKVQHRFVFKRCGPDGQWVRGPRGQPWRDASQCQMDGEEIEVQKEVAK
Description: (§1) To assist in gathering information on the GCGR epitope that the 6B5 binning group bound to, “alanine scanning mutagenesis” was undertaken. These alanine scanning mutagenesis platform is a technique used for mapping both linear and conformational antigen epitopes by evaluating the effects of point mutations across a target protein. Single residues in a target protein are replaced by alanine one at a time to construct a mutant library. Each variant is assayed for its ability to bind to an antibody of interest. […] Amino acids across the extracellular domain of GCGR were mutated to alanine and the anti-GCGR antibody Hz6B5 was tested for binding to the alanine mutants.
(§2) The wild-type GCGR extracellular domain and the alanine mutants were each transfected into 293XP cells and incubated for 24 hours. Antibody Hz6B5 was incubated with the transfected cells for 30 minutes at 4° C. After washing with PBS/1% BSA/0.1% azide, the cells were incubated with a labeled anti-mouse Fc antibody (Jackson Immunoresearch) for 30 minutes at 4° C. After washing with PBS/1% BSA/0.1% azide, the cells were analyzed using a flow cytometer BD (FACSCalibur instrument) and cytometric analytical software (FlowJo). A serum sample from a mouse immunized with human GCGR was used as positive control to confirm expression of the alanine mutants.

[2] = target: T2, GCGR extracellular domain alanine mutant L38A (human, UniProt P47871 26-136, limits assumed); assay: flow cytometry on transfected 293XP cells
T2 construct: expressed in 293XP cells
T2 chain: T1 chain with L13A, A25L
Description: as §1, §2

B1: anti-GCGR antibody Hz6B5 (antibody, V domains shown)
VH: QVQLVQSGAEVKKPGSSVKVSCKASGFTFTNHWLGWVRQAPGQGLEWIGDIYPGGYYINYNEKFKGRVTITADESTSTAYMELSSLRSEDTAVYYCARHTNYGSDYWGQGTTVTVSS
VL: DVVMTQSPLSLPVTLGQPASISCRSSQSIVDSYGNTFLEWYQQRPGQSPRLLIYKVSNRLSGVPDRFSGSGSGTDFTLKISRVEAEDVGVYYCFQGSHVPWTFGQGTKLEIK
notes: Humanized 6B5
% positive cells [1]: 86.6% | % positive cells [2]: 3.3%
